In test [1] the target is Scolopendra subspinipes subspinipes haemocyanin (Scolopendra subspinipes subspinipes). The test can be described thus: negative-stain transmission electron microscopy; Hc pellet from ultracentrifugation, 26-30 µg ml^-1, in 50 mM MES (pH 6.2, 6.6) or 50 mM TRIS-HCl (pH 7.2-8.5) with 5 mM CaCl2 and 5 mM MgCl2; particles counted as 3 × 6-mer or 1 × 6-mer.
The target is the same in test [2]. The test can be described thus: negative-stain transmission electron microscopy; first SEC peak in TRIS stabilizing buffer, stained with 2% uranyl acetate, Jeol 1400Plus.
Test [3] shares this target. The test can be described thus: SEC; plasma (supernatant of haemolymph, 3300g, 30 min, 4°C) on Superose 6 3.2/300, isocratic Tris buffer with 5 mM CaCl2 and 5 mM MgCl2, pH 8.2 or 8.0 (methods), 0.1 ml min^-1; oligomer told from the retention volume.
Test [4] shares this target. The test can be described thus: negative-stain transmission electron microscopy; first SEC peak in TRIS stabilizing buffer, stained with 2% uranyl acetate, Jeol 1400Plus. The source holds these as a separate data set.
Test [5] concerns the target Scolopendra viridicornis haemocyanin (Scolopendra viridicornis). Briefly: SEC; plasma (supernatant of haemolymph, 3300g, 30 min, 4°C) on Superose 6 3.2/300, isocratic Tris buffer with 5 mM CaCl2 and 5 mM MgCl2, pH 8.2 or 8.0 (methods), 0.1 ml min^-1; oligomer told from the retention volume. In general terms: SEC sorts molecules by how far they enter the pores of the column.

Test [6] has the same target. Briefly: negative-stain transmission electron microscopy; first SEC peak in TRIS stabilizing buffer, stained with 2% uranyl acetate, Jeol 1400Plus.

“And” between values parts separate entries of the source, which are not always exact repeats. Equal values may be shown once.

What is called stoichiometry N is the number of molecules, sites or subunits per partner or assembly.

With “Scolopendra subspinipes subspinipes haemocyanin (complex)”, the stoichiometry N in test [1] is 18 and 6; in test [2] it was 6; in test [3] it was 18; in test [4] it was 18.

Consider “Scolopendra viridicornis haemocyanin (complex)”, for which the stoichiometry N in test [5] is 36; in test [6], 36 and 18.

(Values after publication PMC7241075.)
